Laboratory results published in paper PMC10319874 (Scientific Reports, 2023).

Molecular target: rKgp (Porphyromonas gingivalis) (UniProt Q51817)
Experiment: enzyme inhibition assay (chromogenic substrate)

Sequence of rKgp (Porphyromonas gingivalis) (Q51817 25-1732): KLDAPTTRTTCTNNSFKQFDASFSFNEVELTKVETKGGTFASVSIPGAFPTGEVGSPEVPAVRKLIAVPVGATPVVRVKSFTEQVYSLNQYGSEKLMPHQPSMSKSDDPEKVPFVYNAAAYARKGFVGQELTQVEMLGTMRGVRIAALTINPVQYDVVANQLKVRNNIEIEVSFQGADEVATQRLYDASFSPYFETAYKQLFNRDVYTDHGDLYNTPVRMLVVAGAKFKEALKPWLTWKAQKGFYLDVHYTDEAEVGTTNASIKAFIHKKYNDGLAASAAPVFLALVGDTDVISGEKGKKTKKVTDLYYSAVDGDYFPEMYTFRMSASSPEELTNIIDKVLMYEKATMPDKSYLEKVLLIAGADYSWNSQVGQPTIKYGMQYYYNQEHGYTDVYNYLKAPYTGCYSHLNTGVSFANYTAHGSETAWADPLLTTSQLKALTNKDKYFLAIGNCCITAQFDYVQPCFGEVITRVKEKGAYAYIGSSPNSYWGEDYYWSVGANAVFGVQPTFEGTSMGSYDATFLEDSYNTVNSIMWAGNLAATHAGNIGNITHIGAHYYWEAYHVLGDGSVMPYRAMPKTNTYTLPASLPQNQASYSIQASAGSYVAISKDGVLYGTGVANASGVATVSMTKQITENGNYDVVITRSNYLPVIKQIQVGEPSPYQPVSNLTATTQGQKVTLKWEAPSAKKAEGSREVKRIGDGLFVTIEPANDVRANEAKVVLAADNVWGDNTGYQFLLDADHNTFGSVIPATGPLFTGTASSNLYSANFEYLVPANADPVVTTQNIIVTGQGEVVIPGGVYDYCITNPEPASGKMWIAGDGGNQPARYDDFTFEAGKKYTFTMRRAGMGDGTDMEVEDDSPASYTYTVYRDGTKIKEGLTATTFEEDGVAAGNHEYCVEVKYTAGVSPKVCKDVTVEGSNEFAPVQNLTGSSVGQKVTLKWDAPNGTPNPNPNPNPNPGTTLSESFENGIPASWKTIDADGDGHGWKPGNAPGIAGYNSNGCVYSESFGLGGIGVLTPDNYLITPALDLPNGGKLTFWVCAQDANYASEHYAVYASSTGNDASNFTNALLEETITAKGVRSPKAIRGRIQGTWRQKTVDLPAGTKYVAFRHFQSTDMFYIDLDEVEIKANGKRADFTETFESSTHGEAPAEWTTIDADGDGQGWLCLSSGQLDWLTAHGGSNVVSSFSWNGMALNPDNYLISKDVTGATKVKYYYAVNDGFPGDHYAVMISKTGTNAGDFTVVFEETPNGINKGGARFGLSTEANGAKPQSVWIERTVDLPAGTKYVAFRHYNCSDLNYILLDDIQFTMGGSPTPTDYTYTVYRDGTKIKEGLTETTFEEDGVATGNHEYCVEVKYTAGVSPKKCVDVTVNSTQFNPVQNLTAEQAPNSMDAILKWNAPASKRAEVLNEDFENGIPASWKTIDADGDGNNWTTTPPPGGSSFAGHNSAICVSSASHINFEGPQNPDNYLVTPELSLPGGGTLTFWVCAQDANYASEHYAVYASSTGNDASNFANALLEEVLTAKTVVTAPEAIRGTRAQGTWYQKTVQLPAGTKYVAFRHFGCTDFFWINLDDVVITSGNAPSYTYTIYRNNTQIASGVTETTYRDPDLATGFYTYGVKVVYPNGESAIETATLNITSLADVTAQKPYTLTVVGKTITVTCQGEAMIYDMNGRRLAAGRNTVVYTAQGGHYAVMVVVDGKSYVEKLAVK

Substance	IC50	Ki
recombinant RgpB propeptide (rRgpB-PP) (from UniProt P95493 25-229) (domain or fragment)	11 µM	
recombinant Kgp propeptide (rKgp-PP) (from UniProt Q51817) (domain or fragment)		37.5 µM
